Read-outs that look alike come from different tables or passages of the source.
What was measured:
[1] = molecular target: T1, human MerTK on human macrophages (human, UniProt Q12866 21-999); test: cell-based or functional assay
T1 sequence: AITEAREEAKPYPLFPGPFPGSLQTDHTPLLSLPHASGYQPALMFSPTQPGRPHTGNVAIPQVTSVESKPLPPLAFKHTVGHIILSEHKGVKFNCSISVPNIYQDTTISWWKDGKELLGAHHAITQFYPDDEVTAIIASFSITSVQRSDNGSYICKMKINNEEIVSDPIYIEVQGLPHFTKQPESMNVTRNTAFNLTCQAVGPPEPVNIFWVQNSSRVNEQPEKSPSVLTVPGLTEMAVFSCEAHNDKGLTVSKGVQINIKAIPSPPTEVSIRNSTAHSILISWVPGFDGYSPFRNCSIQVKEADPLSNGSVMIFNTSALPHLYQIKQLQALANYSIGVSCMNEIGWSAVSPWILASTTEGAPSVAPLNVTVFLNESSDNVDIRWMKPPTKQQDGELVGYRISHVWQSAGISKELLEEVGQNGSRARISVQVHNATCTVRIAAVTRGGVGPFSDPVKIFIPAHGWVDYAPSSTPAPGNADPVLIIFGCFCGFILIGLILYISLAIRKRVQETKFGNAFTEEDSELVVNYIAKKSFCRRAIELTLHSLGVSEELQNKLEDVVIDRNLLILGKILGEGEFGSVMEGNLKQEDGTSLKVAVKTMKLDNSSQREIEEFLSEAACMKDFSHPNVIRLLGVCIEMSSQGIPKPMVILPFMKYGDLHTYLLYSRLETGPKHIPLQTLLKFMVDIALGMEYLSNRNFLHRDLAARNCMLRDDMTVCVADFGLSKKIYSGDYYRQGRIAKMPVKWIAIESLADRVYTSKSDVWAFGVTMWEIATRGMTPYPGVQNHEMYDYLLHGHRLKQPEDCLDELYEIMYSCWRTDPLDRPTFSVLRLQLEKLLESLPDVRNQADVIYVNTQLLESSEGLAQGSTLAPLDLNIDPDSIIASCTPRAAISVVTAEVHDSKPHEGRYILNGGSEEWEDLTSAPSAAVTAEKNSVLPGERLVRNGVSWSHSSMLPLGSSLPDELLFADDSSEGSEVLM

[2] = molecular target: T1, human MerTK on human macrophages; test: cell-based or functional assay; remark: listed apart in the source
[3] = molecular target: T1, human MerTK on human macrophages; test: cell-based or functional assay; remark: listed apart in the source
human MerTK [4] = molecular target: T2, human MerTK (human, UniProt Q12866 26-499); test: SPR BIAcore T200, Ab captured, 37C
T2 construct: also called HuMER
T2 sequence: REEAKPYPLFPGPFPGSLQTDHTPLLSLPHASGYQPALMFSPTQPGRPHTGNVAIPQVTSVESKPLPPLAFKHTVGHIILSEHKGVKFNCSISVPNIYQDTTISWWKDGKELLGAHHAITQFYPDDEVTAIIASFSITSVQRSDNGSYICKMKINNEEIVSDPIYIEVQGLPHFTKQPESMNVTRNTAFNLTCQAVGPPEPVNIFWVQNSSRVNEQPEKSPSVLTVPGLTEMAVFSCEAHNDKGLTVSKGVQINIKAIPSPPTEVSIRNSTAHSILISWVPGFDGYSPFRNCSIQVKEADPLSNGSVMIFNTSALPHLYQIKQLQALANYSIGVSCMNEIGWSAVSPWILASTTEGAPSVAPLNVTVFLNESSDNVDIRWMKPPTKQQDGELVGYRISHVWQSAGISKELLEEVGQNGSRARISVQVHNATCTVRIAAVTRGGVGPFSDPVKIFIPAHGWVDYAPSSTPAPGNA
Procedure: (§1) All binding affinity determinations were obtained using Surface Plasmon Resonance (SPR) measurements from a BIAcore™-T200 instrument. Briefly, each rabbit or humanized antibody was captured to achieve approximately 100 RU (Response Units). Then, 3-fold serial dilutions of MerTK from various species (0.4 nM to 100 nM) diluted in HBS-EP buffer (0.01M HEPES pH 7.4, 0.15M NaCl, 3 mM EDTA and 0.05% v/v surfactant P20) was injected into the BIAcore™-T200 instrument at 25° C. or 37° C. with a flow rate of 30 μl/min. Association rates (kₒₙ) and dissociation rates (koff) were calculated using a simple one-to-one Langmuir binding model (BIAcore T200 evaluation software version 2.0). The equilibrium dissociation constant (KD) was calculated as the ratio koff/kₒₙ.

cynomolgus monkey MerTK = molecular target: T3, cynomolgus monkey MerTK (cynomolgus monkey, UniProt A0A2K5V1H9 32-505); test: SPR BIAcore T200, Ab captured, 37C
T3 construct: Soluble analyte in SPR; also called Cyno MerTK
T3 sequence: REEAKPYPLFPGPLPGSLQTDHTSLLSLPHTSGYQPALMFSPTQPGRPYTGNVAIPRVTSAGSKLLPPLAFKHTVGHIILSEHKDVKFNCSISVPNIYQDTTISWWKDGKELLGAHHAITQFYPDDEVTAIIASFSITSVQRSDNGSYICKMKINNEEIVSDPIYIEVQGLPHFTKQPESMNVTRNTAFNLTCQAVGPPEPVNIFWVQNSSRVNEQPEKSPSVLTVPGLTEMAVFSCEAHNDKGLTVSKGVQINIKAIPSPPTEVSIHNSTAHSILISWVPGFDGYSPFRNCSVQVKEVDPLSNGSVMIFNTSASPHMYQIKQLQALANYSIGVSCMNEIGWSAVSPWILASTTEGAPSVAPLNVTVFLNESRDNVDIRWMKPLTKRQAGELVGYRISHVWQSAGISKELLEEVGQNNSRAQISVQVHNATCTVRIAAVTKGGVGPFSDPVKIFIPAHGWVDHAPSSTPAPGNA
Procedure: as §1

human MerTK [5] = molecular target: T2, human MerTK; test: SPR BIAcore T200, Ab captured on protein A chip, 25C
Text: (§2) For binding affinity determinations of anti-MerTK antibodies of the present disclosure as a control along with commercial MerTK antibodies, Surface Plasmon Resonance (SPR) measurement with a BIAcore™-T200 instrument was used. First, two rabbit antibodies (Y323 and 10g86_D21F11) and the anti-MerTK antibody h13B4.v16 were captured by protein A sensor chip, and eight mouse antibodies (A3KCAT,2D2,7E5G1,7N-20,590H11G1E3, MAB891, MAB8911 and MAB8912-100) were captured by goat anti-mouse IgGs sensor chip respectively on each flow cell to achieve approximately 100RU. Three-fold serial dilutions of human MerTK (0.4 nM to 100 nM) were injected in HBS-EP buffer (0.01M HEPES pH 7.4, 0.15M NaCl, 3 mM EDTA and 0.05% v/v surfactant P20) at 25° C. with a flow rate of 50 μl/min to record the binding response as a function of time. The sensorgram was fitted with one-to-one Langmuir binding model to calculate association rates (kₒₙ) and dissociation rates (koff) (BIAcore T200 evaluation software version 2.0). The binding affinity (equilibrium dissociation constant (KD)) was calculated as the ratio koff/kₒₙ.

human MerTK [6] = molecular target: T2, human MerTK; test: SPR (BIAcore kinetic screen), h13B4.v16 captured on protein A chip, hMerTK as analyte, 25°C, 1:1 binding model [Cont.]
Text: as §2

B1: h13B4.v16 (antibody, V domains shown)
VH: EVQLVESGEGLVQPGGSLRLSCAASGFSLSSYAMGWVRQAPGKGLEYVGIINSYGNTYYANWAKGRFTISRDNSKNTVYLQMGSLRAEDMAVYYCARDPGVSSNLWGRGTLVTVSS
VL: DIQMTQSPSTLSASVGDRVTITCQASQNIYSGLAWYQQKPGKAPKLLIYGASKLASGVPSRFSGSGSGTEFTLTISSLQPDDFATYYCQATYYSSNSVAFGGGTKVEIK
notes: Humanized, human IgG1; also called 13B4 Fully Humanized; 13B4 Humanized polished mAb
fold potency in inhibiting human macrophage phagocytosis, against h10F7.v16 [1]: 5.2 fold | IC50 (nM), efferocytosis by human macrophages, Average (3 Donors) [2]: 0.08 nM | IC50 (nM), efferocytosis by human macrophages, Donor A [2]: 0.07 nM | IC50 (nM), efferocytosis by human macrophages, Donor B [2]: 0.08 nM | IC50 (nM), efferocytosis by human macrophages, Donor C [2]: 0.09 nM | Max Inhibition (%), efferocytosis by human macrophages, Average (3 Donors) [2]: 83% | Max Inhibition (%), efferocytosis by human macrophages, Donor A [2]: 91% | Max Inhibition (%), efferocytosis by human macrophages, Donor B [2]: 82% | Max Inhibition (%), efferocytosis by human macrophages, Donor C [2]: 77% | IC50 (nM), efferocytosis by human macrophages, Average (3 Donors) [3]: 0.08 nM | Kd (human MerTK [4]): 5.1 nM | Kd (cynomolgus monkey MerTK): 5.7 nM | Kd (human MerTK [5]): 1.6 nM | Kd (human MerTK [6]): 1.63 nM | koff (human MerTK [6]): 0.000151 s⁻¹ | kon (human MerTK [6]): 92400 M⁻¹ s⁻¹

Source: US20220135701A1 (Genentech, published 2022)
